Reference: patent publication US8008452B2, “Phosphorylated Ndr kinase” (Novartis Forschungesstiftung, Zweigniederlassung Friedrich …, priority 2002, dated 2011)

Key:
GST-NDR1 [1] = experiment: GST-NDR1 in vitro autophosphorylation, incorporated 32P by Cerenkov counting; assay type: biochemical, human
Experimental: BL21-DE3-pRep4 E. coli strain was transformed with the pGEX-2T_NDR1 wild type or mutant plasmids. BL21-DE3 is a protease-deficient E. coli strain and pRep4 is a Laclq repressor-bearing plasmid both available commercially. Optionally, if desired, an E. coli strain comprising GroESL can be used, which expresses a chaperone protein that stabilizes the kinase. Mid-logarithmic phase cells were induced with 0.5 mM isopropyl beta-D-thiogalactopyranoside (IPTG) for 4 hours at 30° C. Bacteria were lysed using a French press in the presence of 1 mg/ml lysosyme, and the fusion proteins were purified on glutathione-agarose (Amersham Pharmacia Biotech) as described by the manufacturers. Recombinant proteins were assayed for kinase activity as described below and autophosphorylation was determined after SDS-PAGE separation either by Cerenkov counting or by exposure to a PhosphorImager screen followed by analysis with ImageQuant software (Molecular Dynamics).
In brief, 1 microgram of purified GST-NDR1 (in solution ˜0.5 microM) wild type, kinase dead (K118A), and alanine mutants of phosphorylation residues Thr74, Ser281, and Thr444 were autophosphorylated for 2 hours in vitro without further additions or in the presence of 1 mM CaCl2 and 10 microM bovine S100B. Proteins were visualized on SDS gels using Coomassie Blue R-350 stained SDS-PAGE gel, and [gamma-^32P]ATP-labelled proteins were visualized by autoradiography of the gels developed on a Phosphorimager screen. The amount of incorporated ^32P was quantified by Cerenkov counting.

GST-NDR1 [2] = experiment: Immunodetection of GST-NDR1 phosphorylated on Ser281 or Thr444 after in vitro autophosphorylation; assay type: biochemical, human; conditions: in vitro autophosphorylation with or without Ca2+/S100B
Experimental: Either 1 microgram GST-NDR1 or HA-NDR1 immunoprecipitated from 100 microgram COS-1 detergent extracts as described above was separated on 10% SDS-PAGE and immunoblotted 2 h at RT or overnight at 4° C. with anti-Ser281P antisera (1:1000) in the presence of 50 microg/ml competing unphosphopeptide or anti-Thr444P purified antibody (1:500). Both antibodies were detected with horseradish peroxidase-conjugated donkey anti-rabbit Ig antibody (Amersham biosciences) and developed by ECL (chemiluminescence; Amersham Pharmacia Biotech).
To reliably quantify the effect of S100B on NDR1 phosphorylation status, rabbit polyclonal antibodies were raised against phosphoepitopes comprising Ser281 or Thr444. GST-NDR1 mutants were treated essentially as described in Example 2 and detected either with anti-NDR1_C-term antiserum or polyclonal antibodies recognising NDR1 phosphorylated on Ser281 or Thr444.

myc-hMOB1 = experiment: Co-immunoprecipitation of HA-NDR and myc-hMOB1 from COS-1 cells; assay type: binding, human; conditions: COS-1 cells treated with OA prior to lysis
Experimental: HA-tagged hNDR and myc-tagged hMOB1 were cotransfected in COS1 cells, which were stimulated with okadaic acid or solvent alone. After cell lysis and extract preparation, HA-NDR was immunoprecipitated and co-immunoprecipitated myc-hMOB1 detected or Myc-hMOB1 was immunoprecipitated and co-immunoprecipitated HA-NDR detected.
HA-NDR, wt and mutants, and myc-hMOB1 were cotransfected into COS-1 cells and the cells were treated with OA prior to lysis. HA-NDR was immunoprecipitated and the coimmunoprecipitated myc-hMOB1 detected. […] Furthermore, the two important in vivo phosphorylation sites of NDR, serine-281 in the activation segment and the hydrophobic motif site threonine-444 in the C-terminal regulatory domain were tested, as well as the threonine 74 site in the N-terminal regulatory domain, for their role in NDR-MOB interaction.
HA-NDR N-terminal point mutants and myc-mob1 were co-transfected into COS1 cells which were treated with OA prior to lysis. HA-NDR mutants were immunoprecipitated and coimmunoprecipitated myc-hMOB1 detected.
In this Example, the effect of treatment of COS1 cells with BAPTA-AM on the NDR-MOB Interaction was determined. […] HA-NDR was immunoprecipitated and co-immunoprecipitated myc-MOB1 detected. The kinase activity of the HA-NDR immunoprecipitates was measured in a peptide kinase assay.

B1: S281A: NDR1 alanine mutant of phosphorylation residue Ser281; GST fusion or HA-tagged (protein)
chain: MAMTGSTPCSSMSNHTKERVTMTKVTLENFYSNLIAQHEEREMRQKKLEKVMEEEGLKDEEKRLRRSAHARKETEFLRLKRTRLGLEDFESLKVIGRGAFGEVRLVQKKDTGHVYAMKILRKADMLEKEQVGHIRAERDILVEADSLWVVKMFYSFQDKLNLYLIMEFLPGGDMMTLLMKKDTLTEEETQFYIAETVLAIDSIHQLGFIHRDIKPDNLLLDSKGHVKLSDFGLCTGLKKAHRTEFYRNLNHSLPSDFTFQNMNSKRKAETWKRNRRQLAFATVGTPDYIAPEVFMQTGYNKLCDWWSLGVIMYEMLIGYPPFCSETPQETYKKVMNWKETLTFPPEVPISEKAKDLILRFCCEWEHRIGAPGVEEIKSNSFFEGVDWEHIRERPAAISIEIKSIDDTSNFDEFPESDILKPTVATSNHPETDYKNKDWVFINYTYKRFEGLTARGAIPSYMKAAK
modifications: left off: small tags and cut ends
notes: NDR1 alanine mutant of phosphorylation residue Ser281; GST fusion or HA-tagged
- amount of incorporated 32P (autophosphorylation), −S100B (GST-NDR1 [1]; GST-NDR1 variant, 1 microgram, autophosphorylated 2 hours without further additions, pmol ATP/pmol GST-NDR1): 0.0192
- amount of incorporated 32P (autophosphorylation), +S100B (GST-NDR1 [1]; GST-NDR1 variant, 2 hours in the presence of 1 mM CaCl2 and 10 microM bovine S100B, in pmol ATP/pmol GST-NDR1): 0.028
- autophosphorylation rate of GST-NDR1 mutant (in words) (GST-NDR1 [1]; compared with wild type): dramatically reduced autophosphorylation rate
- phosphorylation of GST-NDR1 on Ser281 and Thr444 (phosphospecific antibodies) (GST-NDR1 [2]): entirely abolishes the autophosphorylation on Thr444
- interaction of HA-NDR variant with myc-hMOB1 (myc-hMOB1): still interact with MOB1
